The record followed here is article PMC5737688.

Where two headings read alike, the source gives them in different places.

The target in assay [1] is GAN·GINS complex of Thermococcus kodakarensis, formed on the SPR chip from the purified recombinant proteins (Thermococcus kodakarensis). Description: SPR. (In general: In SPR one partner is held on a chip, and binding of the other changes the refractive index at the surface.)
The target is the same in assay [2]. Description: SPR. This is another data set of the same source.

Take “MCM3 (minichromosome maintenance helicase) of Thermococcus kodakarensis, homohexamer, recombinant (enzyme)”: the Kd stood at 0.18 µM in assay [1] and 0.19 µM in assay [2].

In general, Kd refers to the concentration at which binding is half-saturated.
